Test results published in publication PMC9762590 (PLOS Pathogens, 2022).
Substitutions are numbered along the chain they refer to.

Assays:
[1] = target: T1, NANP5.5-1210 Fab-LS-Th2R nanoparticles (Plasmodium falciparum (3D7/NF54-type …, UniProt Q7K740)); experiment: BLI; Fabs immobilised on anti-human Fab-CH1 biosensors (10 μg/mL), dipped into nanoparticles; kinetics buffer PBS pH 7.4, 0.01% BSA, 0.002% Tween-20; Octet RED96; conditions: both partners purified
T1 construct: 5.5 NANP repeat motifs of the PfCSP central repeat (NANP5.5); 8-aa linker; Aquifex aeolicus lumazine synthase (LS) monomer; Aquifex aeolicus lumazine synthase (LS) alone, from the co-transfected LS-pHLsec plasmid; 60-mer LS nanocage; source: HEK293F, transient co-transfection, secreted, purified (StrepTrap, SEC on Superose 6); copies: + +
T1 chain: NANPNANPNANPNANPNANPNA

[2] = target: T2, NANP6 peptide (Plasmodium falciparum (synthetic repeat …, N-terminal biotin-aminohexanoic acid tag; unmodified C-terminus); experiment: SPR; Carterra LSA, CMD200M chip, 25°C; mAbs directly amine-coupled, PfCSP peptides as analytes (two-fold series, top 8 μg/ml) in 1X HBSTE; 1:1 Langmuir fit; KD includes avidity effect for antigens with multiple repeats; conditions: both partners purified
T2 construct: PfCSP central repeat motifs; source: synthetic peptide (CPC Scientific)
T2 chain: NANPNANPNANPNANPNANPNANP

B1: 1210 Fab (Fab, V domains shown)
VH: QVQLVESGGGVVQPGRSLRLSCAASGFTFSNYGMHWVRQAPGKGLEWVAVIWYDGSKKYYADSVKGRFTISRDNSKNTLYLQMNSLRAEDTAVYYCARVRDSSDYYGDAFDIWGQGTMVTVSS
VL: DIQMTQSPSTLSASVGDRVTITCRASQSISSWLAWYQQKPGKAPKLLIYKASNLESGVPLRFSGSGSGTEFTLTISSLQPDDFATYYCQQYNNYWTFGQGTKVEIK
B1: binds [1].

B2: monoclonal antibody (mAb) 850 (antibody, V domains shown)
VH: QVQLVESGGGVVQPGRSLRLSCAASGFTFSNFGMHWIRQSPGKGLEWVAIIWYDGSNTYYADSVKGRFTISRDNSKNTLYLQMNSLRAEDTAVYYCAKVWFGESEDNYSVDVWGQGTTVTVSS
VL: B1 VL with A13T, S31N, N53T, L60S, N92S, N93S, V103L
notes: VH of mAb 850 (IGHV3-33); human IgG1 heavy chain constant region (antibodies expressed as fully human IgG1); VK of mAb 850 (IGKV1-5); human Ig kappa constant region (antibodies expressed as fully human IgG1); IgG1, kappa; source: recombinantly expressed as fully human IgG1; re-expressed in CHO-3E7 cells, purified (MabSelect SuRe LX)
For B2, the Kd [2] was 0.025 nM.

B3: Fab 2541 (Fab, V domains shown)
VH: QVQLVESGGGVVQPGRSLRLSCAASGFTFSSYGMHWVRQTTGKGLEWVAIIWHDGSKKYYADSVKGRLTISRDNSKNTLYLQMNSLRVEDTALYYCARVGDYSDFKYGAFDIWGQGTMVTVSS
VL: B1 VL with K45N, N53T, L60S, N93S, K102R
B3: binds [1].
